Source: US20230212294A1 (MINGHUI PHARMACEUTICAL SHANGHAI, published 2023)
Positions count from the first letter of the chain named.

B1: NL24-A68 (antibody, V domains shown)
VH: QVQLVQSGAEVKKPGSSVKVSCKASGGTFSSYAISWVRQAPGQGLEWMGGIIPILGIANYAQKFQGRVTITADKSTSTAYMELSSLRAEDTAVYYCARGGSGRYLPDYWGQGTLVTVSA
VL: EIVLTQSPATLSLSPGERATLSCRASQSVSSYLAWYQQKPGQAPRLLIYDASNRATGIPARFSGSGSGTDFTLTISSLEPEDFAVYYCQQRSNWPPSLTFGGGTKVEIK
notes: Screened from the human source library; full-length antibody; also called NL24A68HC; NL24A68LC
B2: IL-P7-C05-H3L1 (antibody, V domains shown)
VH: EVQLVESGGGLVQPGGSLRLSCAASGFTFSSYGMSWVRQAPGKGLELVAAINSNGGSTYYADSVKGRFTISRDNAKNTLYLQMSSLRAEDTAVYYCTRNEEFRRGLAYWGQGTLVTVSS
VL: DIQMTQSPSSLSASVGDRVTITCRASENIYSNLAWYQQKPGKAPKLLVYAATNLADGVPSRFSGSGSGTDYTLTISSLQPEDFATYYCQHFWGTPPWTFGQGTKLEIK
notes: Humanized from IL-P7-C05; full-length antibody; also called ILP7C05huVH3 + ILP7C05huVL1
B3: IL-P7-C05-H1L1 (antibody, V domains shown)
VH: B2 VH with A50T, S57T, A61P, N77H
VL: B2 VL
notes: Humanized from IL-P7-C05; full-length antibody; also called ILP7C05huVH1 + ILP7C05huVL1
B4: IL-P7-C05-H2L1 (antibody, V domains shown)
VH: B2 VH with A50T, S57T
VL: B2 VL
notes: Humanized from IL-P7-C05; full-length antibody; also called ILP7C05huVH2 + ILP7C05huVL1
B5: IL-P7-C05-H2L2 (antibody, V domains shown)
VH: B2 VH with A50T, S57T
VL: B2 VL with A55Q, D56S
notes: Humanized from IL-P7-C05; full-length antibody; also called ILP7C05huVH2 + ILP7C05huVL2
B6: IL-P7-C05-H3L3 (antibody, V domains shown)
VH: B2 VH
VL: B2 VL with V48I, T52S, A55Q, D56S
notes: Humanized from IL-P7-C05; full-length antibody; also called ILP7C05huVH3 + ILP7C05huVL3
B7: IL-P7-C05-H4L1 (antibody, V domains shown)
VH: B2 VH with G33A
VL: B2 VL
notes: Humanized from IL-P7-C05; full-length antibody; also called ILP7C05huVH4 + ILP7C05huVL1
B8: IL-P6-C11 (antibody, V domains shown)
VH: EVQLQQSGPELVKPGASVRISCKTSGYTFTDYVIHWVKQNHGGSLEWIGGINRDSGGTTYNQKFQDKVTLTVDKSSNTAYMELRSLTSEDSAVYYCTKWKFPWYFDVWGAGTTVTVSS
VL: DIELTQSPAIMSASPGEKVTMTCSASSSISYMHWYQQKPGTSPKRWIYDTSKLASGVPARFSGSGSGTSYSLTISRVEAEDAATYYCQQWSSNPLTFGSGTKLEIK
notes: Unhumanized murine variable regions; full-length antibody
B9: IL-P6-B07 (antibody, V domains shown)
VH: B8 VH with D31E
VL: B8 VL with E3V, I29V, P39S, R76S, V77M, S99A, I105L
notes: as for B8
B10: NL24-A17 (antibody, V domains shown)
VH: QVQLVQSGAEVKKPGSSVKVSCKASGGTFSSYAISWVRQAPGQGLEWMGGIIPILGIANYAQKFQGRVTITADESTSTAYMELSSLRSEDTAVYYCARGDSGYDSNYWGQGTLVTVSA
VL: B1 VL with S31T, F83Y, S97L, L98F, G102P, E107D
notes: Screened from the human source library; full-length antibody; also called NL24A17HC; NL24A17LC
B11: NL24-A10 (antibody, V domains shown)
VH: B1 VH with Q1E, L55F, I57T, K74E, A88S, G100E, S101R, R103S, P106I
VL: B1 VL with S97M, L98Y, G102Q, V106L
notes: Screened from the human source library; full-length antibody; also called NL24A10HC; NL24A10LC
B12: IL-P5-C06-H2L3 (antibody, V domains shown)
VH: QVQLVQSGAEVKKPGASVKVSCKGSGYTFTDYAIHWGRQAPGQGLEWIGIINTYNGNSNYAQKFQGRATMTRDTSTSTAYMELSRLRSEDTAVYYCARNYGSSFNWYFDVWGQGTTVTVSS
VL: DIQLTQSPSSLSASVGDRVTITCRASSSISSNYLHWYQQKPGKAPKLLIYSTSNLASGVPSRFSGSGSGTDFTLTISSLQPEDFATYYCQQYSGYPLTFGQGTKLELK
notes: Humanized from IL-P5-C06; full-length antibody; also called ILP5C06huVH2 + ILP5C06huVL3
B13: IL-P5-C06-H1L1 (antibody, V domains shown)
VH: B12 VH with G37A, R72V, T74K
VL: B12 VL with L11M, V19I, A44S, F72Y, L79V
notes: Humanized from IL-P5-C06; full-length antibody; also called ILP5C06huVH1 + ILP5C06huVL1
B14: IL-P5-C06-H1L3 (antibody, V domains shown)
VH: B12 VH with G37A, R72V, T74K
VL: B12 VL
notes: Humanized from IL-P5-C06; full-length antibody; also called ILP5C06huVH1 + ILP5C06huVL3
B15: IL-P5-C06-H1L4 (antibody, V domains shown)
VH: B12 VH with G37A, R72V, T74K
VL: B12 VL with L4M, A56Q
notes: Humanized from IL-P5-C06; full-length antibody; also called ILP5C06huVH1 + ILP5C06huVL4
B16: IL-P5-C06-H2L2 (antibody, V domains shown)
VH: B12 VH
VL: B12 VL with V19I, L79V
notes: Humanized from IL-P5-C06; full-length antibody; also called ILP5C06huVH2 + ILP5C06huVL2
B17: IL-P5-C06-H2L4 (antibody, V domains shown)
VH: B12 VH
VL: B12 VL with L4M, A56Q
notes: Humanized from IL-P5-C06; full-length antibody; also called ILP5C06huVH2 + ILP5C06huVL4
B18: IL-P5-C06-H3L3 (antibody, V domains shown)
VH: B12 VH with G24A, I48M, A68V
VL: B12 VL
notes: Humanized from IL-P5-C06; full-length antibody; also called ILP5C06huVH3 + ILP5C06huVL3
B19: IL-P5-C06-H3L4 (antibody, V domains shown)
VH: B12 VH with G24A, I48M, A68V
VL: B12 VL with L4M, A56Q
notes: Humanized from IL-P5-C06; full-length antibody; also called ILP5C06huVH3 + ILP5C06huVL4

Key:
monkey B7-H3-his = molecular target: T1, monkey B7-H3-his (monkey); test: ELISA, antigen coated at 2 µg/mL
T1 chain: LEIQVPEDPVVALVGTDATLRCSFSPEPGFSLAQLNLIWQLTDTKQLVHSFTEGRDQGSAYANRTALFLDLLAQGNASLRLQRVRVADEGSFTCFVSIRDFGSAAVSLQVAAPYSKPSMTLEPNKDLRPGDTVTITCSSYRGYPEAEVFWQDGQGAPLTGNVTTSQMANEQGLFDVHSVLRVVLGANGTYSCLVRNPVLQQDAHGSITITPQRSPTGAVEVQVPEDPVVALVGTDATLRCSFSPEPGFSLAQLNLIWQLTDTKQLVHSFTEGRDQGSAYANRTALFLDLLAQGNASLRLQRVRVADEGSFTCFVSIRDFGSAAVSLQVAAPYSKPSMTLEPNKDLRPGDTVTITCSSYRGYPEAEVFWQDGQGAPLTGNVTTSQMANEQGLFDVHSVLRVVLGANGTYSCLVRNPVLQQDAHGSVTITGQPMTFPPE
Procedure: (§1) Human B7-H3-his, mouse B7-H3-his and monkey B7-H3-his were diluted to 2 μg/mL with PBS, and added to the ELISA plate at 30 μL per well. The ELISA plate was then incubated in a refrigerator at 4° C. for 16-20 hours. The next day, the ELISA plate was washed once with a lotion (PBS containing 0.05% Tween 20) and then blocked with 5% skim milk powder for 1 hour. After blocking, the ELISA plate was washed once, then added with gradient-diluted anti-B7-H3 antibodies, and incubated at room temperature for 1 h. After incubated, the ELISA plate was washed three times, then added with goat anti-human HRP-labeled secondary antibody, and incubated at room temperature for 1 h. After incubated, the ELISA plate was washed three times, then developed for 5-15 minutes by adding TMB, and finally terminated with 2M sulfuric acid. The data were recorded on the microplate reader.

mouse B7-H3-his = molecular target: T2, mouse B7-H3-his (mouse, UniProt Q8VE98 29-244, limits assumed); test: ELISA, antigen coated at 2 µg/mL
T2 construct: His-tagged recombinant protein coated on the ELISA plate; not shown: his tag
T2 sequence (looked up): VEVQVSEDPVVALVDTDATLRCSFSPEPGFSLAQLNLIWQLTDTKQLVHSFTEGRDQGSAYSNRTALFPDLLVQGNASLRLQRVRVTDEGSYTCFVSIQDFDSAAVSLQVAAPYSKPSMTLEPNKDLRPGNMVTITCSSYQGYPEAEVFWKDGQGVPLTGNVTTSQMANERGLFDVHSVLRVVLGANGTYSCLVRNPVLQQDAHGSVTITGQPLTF
Procedure: as §1

[1] = molecular target: T3, B7-H3 on CHOK cells overexpressing B7-H3; test: cell-based or functional assay
T3 sequence (Q5ZPR3 whole entry, species assumed, looked up): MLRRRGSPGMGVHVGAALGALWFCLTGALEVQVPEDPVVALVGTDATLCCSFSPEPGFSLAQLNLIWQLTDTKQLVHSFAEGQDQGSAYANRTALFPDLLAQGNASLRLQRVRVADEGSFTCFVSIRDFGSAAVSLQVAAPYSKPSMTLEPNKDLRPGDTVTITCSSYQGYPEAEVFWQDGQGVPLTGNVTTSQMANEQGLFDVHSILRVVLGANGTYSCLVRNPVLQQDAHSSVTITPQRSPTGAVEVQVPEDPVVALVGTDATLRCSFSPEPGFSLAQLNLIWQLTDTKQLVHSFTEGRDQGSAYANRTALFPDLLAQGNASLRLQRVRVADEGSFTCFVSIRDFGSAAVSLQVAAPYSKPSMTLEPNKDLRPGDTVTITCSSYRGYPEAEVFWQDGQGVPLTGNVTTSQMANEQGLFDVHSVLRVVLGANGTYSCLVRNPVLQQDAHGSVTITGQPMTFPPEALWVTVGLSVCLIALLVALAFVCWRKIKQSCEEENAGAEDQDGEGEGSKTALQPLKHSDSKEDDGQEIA

[2] = molecular target: T4, B7-H3 endogenously expressed on human tumor cell lines (human, UniProt Q5ZPR3 29-534); test: flow cytometry on NCI-H322 cells
T4 construct: whole, on cells; The cell line is named in the assay or readout field of each row; also called NCI-H322 cells endogenously expressing B7-H3; B7-H3-positive human tumor cell lines NCI-H1975, BxPC-3, Calu-6
T4 sequence (looked up): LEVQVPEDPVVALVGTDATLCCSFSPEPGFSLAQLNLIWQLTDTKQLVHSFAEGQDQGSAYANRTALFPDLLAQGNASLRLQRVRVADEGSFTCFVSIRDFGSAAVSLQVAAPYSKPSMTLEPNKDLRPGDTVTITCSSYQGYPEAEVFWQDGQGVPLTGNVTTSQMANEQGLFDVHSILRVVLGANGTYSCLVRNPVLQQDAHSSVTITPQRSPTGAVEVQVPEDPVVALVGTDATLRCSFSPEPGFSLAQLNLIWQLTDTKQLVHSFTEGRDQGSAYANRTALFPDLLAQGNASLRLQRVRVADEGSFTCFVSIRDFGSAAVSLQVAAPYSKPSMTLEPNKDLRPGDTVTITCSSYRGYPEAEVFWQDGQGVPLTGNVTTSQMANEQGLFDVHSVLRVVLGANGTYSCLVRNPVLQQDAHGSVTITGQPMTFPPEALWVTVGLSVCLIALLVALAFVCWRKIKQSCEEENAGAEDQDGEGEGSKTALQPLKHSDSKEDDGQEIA
Procedure: (§2) CHOK cells overexpressing B7-H3 or NCI-H322 cells endogenously expressing B7-H3 were added to a round-bottom 96-well plate at 100,000 cells per well, centrifuged to remove the supernatant, and then added with a gradient-diluted anti-B7-H3 antibody and incubated at 4 degrees for 1 h. After incubation, the cells were washed twice with FACS buffer (PBS containing 2% FBS), then added with fluorescent-labeled goat anti-human secondary antibody (Abcam, ab98596) and incubated for 0.5 h. After incubation, the cells were washed twice with FACS buffer, then resuspended with FACS buffer and detected with flow cytometry (Beckman, cytoFlex).

[3] = molecular target: T3, B7-H3 on CHOK cells overexpressing B7-H3; test: flow cytometry on CHOK cells overexpressing B7-H3
Procedure: as §2

Row | Binder | EC50 (monkey B7-H3-his) [µg/mL] | EC50 (mouse B7-H3-his) [µg/mL] | IC50 of CHO endocytosis experiment (toxin-labeled secondary antibody, cell viability) [1] [µg/mL] | EC50 [2] [µg/mL] | EC50 [3] [µg/mL]
1 | B1 | 0.131 | 0.205 | 0.0035 | 0.0484 | –
2 | B2 | – | – | – | 0.0109 | 0.454
3 | B3 | – | – | – | 0.0107 | 0.426
4 | B4 | – | – | – | 0.0144 | 0.426
5 | B5 | – | – | – | 0.0145 | 0.455
6 | B6 | – | – | – | 0.0106 | 0.431
7 | B7 | – | – | – | 0.0138 | 0.468
8 | B8 | 0.0152 | 0.523 | 0.0035 | 0.21 | 0.311
9 | B9 | 0.183 | 1.29 | – | 0.249 | –
10 | B10 | 0.0527 | 0.0643 | – | 0.0267 | 0.665
11 | B11 | 0.124 | 0.219 | – | 0.0304 | 0.448
12 | B12 | – | – | – | 0.0618 | 0.826
13 | B13 | – | – | – | 0.0895 | 1.05
14 | B14 | – | – | – | 0.0829 | 0.941
15 | B15 | – | – | – | 0.0436 | 0.596
16 | B16 | – | – | – | 0.0919 | 1.12
17 | B17 | – | – | – | 0.0576 | 0.747
18 | B18 | – | – | – | 0.137 | 1.18
19 | B19 | – | – | – | 0.107 | 1.13
